The subject of this series is T1, YhjC-His6 (Shigella flexneri (serotype 5a M90T?)), ORF:c5ce7ff9.
T1 sequence: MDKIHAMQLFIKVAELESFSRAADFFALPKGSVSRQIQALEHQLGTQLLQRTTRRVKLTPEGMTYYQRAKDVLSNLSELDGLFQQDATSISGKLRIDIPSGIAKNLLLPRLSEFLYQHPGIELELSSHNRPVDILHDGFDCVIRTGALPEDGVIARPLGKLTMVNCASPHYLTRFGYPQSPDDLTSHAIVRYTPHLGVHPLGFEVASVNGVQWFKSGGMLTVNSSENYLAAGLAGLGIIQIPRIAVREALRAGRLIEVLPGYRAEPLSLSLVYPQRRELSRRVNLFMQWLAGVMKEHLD
The experiment in a line: EMSA. As to conditions: 20 mM Tris-HCl pH 7.5, 50 mM KCl, 1 mM EDTA, 1 mM DTT, 5% glycerol.

For the sequence “GGTTATAGTCCCTTTCAGTGCAAATACTTAGCTTGTTGCACAGAGAAATAGAAGCTGCATAAGCTCTTTCTTCAAAAAATGTAAATAAAGTTAAATATAGGAAAAATTACTTAATCTATCTTAATAACGGAAAGATTTTGTATACAATCACTGTTACAGAAATTTCTTAGTTACTCTGTAAACACTAAATATAGTTTGGTATATTCTGTTGAATTTATGATGGATATGGGACATAAAAACAAAATAGATATAAAGGTTCGCTTGCATAAC (double strand) [virF promoter (PvirF)]”, the binding entry was “binds”.

Values taken from PMC8218686.
